According to patent US20140113854:

Human α-thrombin
cleavage of the peptide by thrombin, HPLC of the intact peptide, 75 µM peptide, 23 nM thrombin, 37 °C (BRI-T208): BRI-T208 is significantly more resisitent to thrombin cleavage than BRI-T218 | cleavage of the peptide by thrombin, HPLC of the intact peptide, 75 µM peptide, 23 nM thrombin, 37 °C (BRI-T218): completely converted to the cleavage products within two hours under the specific experimental conditions
